Data from the DeepSol protein solubility set.

Experiment: soluble on expression in E. coli; label from the status in PepcDB or PDB records

Sequence | soluble on expression in E. coli
MSITSTDICQAADALKGFVGFNRKTGRYIVRFSEDSFGMDVADDSITPTSEFVWSSVRDDVMRLGREQLQILLEQNINERLNIGEPLLVYLRRQDLPEITAQRQLR | not soluble
MSIYEYFVKLHRYLLWQTKKIRALERRLHALEARLREMEAQPRTSIERIEYKFDQLKVETLEGTLNIGIAPPGAGGTIEDFAVEPVKTVIPKPEPVLMRPIQEKVAAYLNGEASETLKRLEQQYGRRLDDTYRQFILQDIARQTDERIRFYLQEKANHGYVPSGDRDEAVENEIFQKVKADIEQSLDAFLKHLPSKEGST | not soluble
MSIYSKILVVADINNDEQPALARAVQLAQKSVSRSRITFFLSIYDFSYDMTSMLSVDERDAMRRGVIHQREQWMRKIAQPYLNDSFDFDVCVVWHNRPYEAIIAEVYAGGHDLLIKGTRKHDVLESVIFTPTDWHLLRKCPTPVLLIKNSDWPEQANILASVHVGSENPTHIDLNDAMVERLKEMSNRLDAEPYLVNAYPVTPANITIELPEFDPTTYTDAVRGHHLTAMKALRQKHGIDEEQT | not soluble
MSKAGASLATCYGPVSADVMAKAENIRLLILDVDGVLSDGLIYMGNNGEELKAFNVRDGYGIRCALTSDIEVAIITGRKAKLVEDRCATLGITHLYQGQSNKLIAFSDLLEKLAIAPENVAYVGDDLIDWPVMEKVGLSVAVADAHPLLIPRADYVTRIAGGRGAVREVCDLLLLAQGKLDEAKGQSI | soluble
MSKEPGEDVDLFDMEQFQSSFKRILQRALKNVTVSFRVYEKDSVWIRVAWGTQYSQPNQYKPTFVVYYPQTPYAFISSCHLKNTVPLLHQALKVASKHHQIVHLDLRSRHLDSLKAIVFREYNQTCENYSSTTSLQEASLSMCLDSKITHENTEEKVRVHRVTQETFGTYPQPQLEFAQYKLETKFKSNIGGGLLADRKEPFRCLVKFSSPHLLEALKSLAPAGIADAPLSPLLTCIPSKKMNYFKIRDK | not soluble
MSKFNLGIAKAGKTVNNEGAIAYSMSDKEKLVTQVLTSFFNENKFYGDNSQDILNTVRNVIKNEAAFVANLCIFARKEMHLRTISHVLVSELAKSTEGKEYVRRTLNEIIERPDDMTEVLAYYINTYGKPIPNSIKKGLADSFGKFDEYQLAKYNRKNAVKLKDILCLVHPKAKDEIQNDLWKRLLEDRLETPVTWETELSLKGNTKEVWERLIDENRLGYMAMMRNLRNIIKSGASNMDKVYEYLTDEERVLKNKQLPFRYYSAYKVLRNEGIGTSKIYDALEIAIKISTKNIDRLPGKTLIAADVSGSMNFPVSAKSDLTCAEVAVLMLSIANYICEESITMTFDDNLYACNLSTQNGIIANANSIKVNGGGTDITLPLRYLLDKRIFVDRIILLSDNEINAVYTYDTGRDKPKTCQALVERYKKWINPNVWVHAIDMQGYGTQQFKGQNVNIIAGWSERVFDFISSVEQGIDTLIGKISGYYFK | soluble
MSKIAKTAIISPKAEINKGVEIGEFCVIGDGVKLDEGVKLHNNVTLQGHTFVGKNTEIFPFAVLGTQPQDLKYKGEYSELIIGEDNLIREFCMINPGTEGGIKKTLIGDKNLLMAYVHVAHDCVIGSHCILANGVTLAGHIEIGDYVNIGGLTAIHQFVRIAKGCMIAGKSALGKDVPPYCTVEGNRAFIRGLNRHRMRQLLESKDIDFIYALYKRLFRPIPSLRESAKLELEEHANNPFVKEICSFILESSRGVAYKSSEYSSEEKQEE | soluble
MSKLASPQSVRALLERHGLFADKRFGQNFLVSEAHLRRIVEAARPFTGPVFEVGPGLGALTRALLEAGAEVTAIEKDLRLRPVLEETLSGLPVRLVFQDALLYPWEEVPQGSLLVANLPYHIATPLVTRLLKTGRFARLVFLVQKEVAERMTARPKTPAYGVLTLRVAHHAVAERLFDLPPGAFFPPPKVWSSLVRLTPTGALDDPGLFRLVEAAFGKRRKTLLNALAAAGYPKARVEEALRALGLPPRVRAEELDLEAFRRLREGLEGAV | soluble
MSKLFPGEVFANTADFDTGIRQLLPRYDEMLEVICRCLPLTSRRILDLGCGTGELSLKILQRCPDAQVIALDYSPRMLKFAQNKIVASGYKERWTGLQADFGDWAINPETLNIGNEFDACVSSLAIHHLYDEMKLQLFQRIAASLTPNGCFWNADPILPESPTLAEIYQAAREEWVSEQGSNFTEVRAKVGDSSPQGYSNPDQLATLDTHLQMLTKSGFTTVAVPWKYYGLAVFGGWVKLEHHHHHH | soluble
